Data: PMC3356575

Key:
Assay type in all cases: biochemical, Bacteroides thetaiotaomicron
Settings in all cases: 50 mM HEPES pH 7.0, 5 mM MgCl2, 37 °C
[1] = substrate: O=P(O)(O)OC[C@H]1O[C@H](O[C@H]2O[C@H](CO)[C@@H](O)[C@H](O)[C@H]2O)[C@H](O)[C@@H](O)[C@@H]1O; assay: initial rates, phosphate release
[2] = substrate: O=P(O)(O)OC[C@H]1O[C@@](CO)(O[C@H]2O[C@H](CO)[C@@H](O)[C@H](O)[C@H]2O)[C@@H](O)[C@@H]1O; assay: initial rates, phosphate release
[3] = substrate: O=P(O)(O)OCC(O)CO; assay: initial rates, phosphate release
[4] = substrate: Cc1ncc(COP(=O)(O)O)c(C=O)c1O; assay: initial rates, phosphate release
[5] = substrate: Nc1ncnc2c1ncn2[C@@H]1O[C@H](COP(=O)(O)OP(=O)(O)O)[C@@H](O)[C@H]1O; assay: initial rates, phosphate release
[6] = substrate: O=P(O)(O)OC[C@@H](O)[C@@H](O)[C@H](O)[C@@H](O)CO; assay: initial rates, phosphate release
purified protein = substrate: O=[N+]([O-])c1ccc(OP(=O)(O)O)cc1; assay: purified protein

B1: BT1666 (Bacteroides thetaiotaomicron VPI-5482) (protein)
chain: MIKVLLLDVDGTLLSFETHKVSQSSIDALKKVHDSGIKIVIATGRAASDLHEIDAVPYDGVIALNGAECVLRDGSVIRKVAIPAQDFRKSMELAREFDFAVALELNEGVFVNRLTPTVEQIAGIVEHPVPPVVDIEEMFERKECCQLCFYFDEEAEQKVMPLLSGLSATRWHPLFADVNVAGTSKATGLSLFADYYRVKVSEIMACGDGGNDIPMLKAAGIGVAMGNASEKVQSVADFVTDTVDNSGLYKALKHFGVI
[1]
  Km: 2.2 ± 0.4 mM
  kcat: 0.3 ± 0.03 s⁻¹
  kcat/Km: 140 M⁻¹ s⁻¹
[2]
  Km: 1.4 ± 0.3 mM
  kcat: 0.11 ± 0.01 s⁻¹
  kcat/Km: 79 M⁻¹ s⁻¹
[3]
  Km: 5.3 ± 0.7 mM
  kcat: 0.42 ± 0.03 s⁻¹
  kcat/Km: 79 M⁻¹ s⁻¹
[4]
  Km: 4.1 ± 0.5 mM
  kcat: 0.29 ± 0.01 s⁻¹
  kcat/Km: 70 M⁻¹ s⁻¹
[5]
  Km: 1.0 (± 2) × 10^1 mM
  kcat: 0.45 ± 0.06 s⁻¹
  kcat/Km: 45 M⁻¹ s⁻¹
[6]
  Km: 6.5 ± 3 mM
  kcat: 0.42 ± 0.06 s⁻¹
  kcat/Km: 65 M⁻¹ s⁻¹
Purified protein
  Km: 0.51 ± 0.1 mM
  kcat: 0.055 ± 0.007 s⁻¹
  kcat/Km: 110 M⁻¹ s⁻¹
